Where “and” joins values, the source holds several entries; their conditions need not be identical. Equal entries are not always repeated. Where two headings read alike, the source gives them in different places.
What was measured:
[1] = molecular target: cynomolgus α4β7 integrin (cynomolgus monkey); assay: FACS, cyno CD4+ naïve
[2] = molecular target: cynomolgus α4β7 integrin (cynomolgus monkey); assay: FACS, cyno CD4+ total
[3] = molecular target: cynomolgus α4β7 integrin (cynomolgus monkey); assay: FACS, cyno CD8+ naïve
[4] = molecular target: cynomolgus α4β7 integrin (cynomolgus monkey); assay: FACS, cyno CD8+ total
[5] = molecular target: cynomolgus α4β7 integrin (cynomolgus monkey); assay: FACS, cyno CD8+ memory
[6] = molecular target: human α4β7 integrin (human) (UniProt P13612); assay: FACS, human CD4+ naïve
[7] = molecular target: human α4β7 integrin (human) (UniProt P13612); assay: FACS, human CD4+ total
[8] = molecular target: human α4β7 integrin (human) (UniProt P13612); assay: FACS, human CD8+ naïve
[9] = molecular target: human α4β7 integrin (human) (UniProt P13612); assay: FACS, human CD8+ total
[10] = molecular target: human α4β7 integrin (human) (UniProt P13612); assay: flow cytometry, HuT78 cells
[11] = molecular target: human α4β7 integrin (human) (UniProt P13612); assay: FACS titration on BaF3-hα4β7
[12] = molecular target: human α4β7 integrin (human) (UniProt P13612); assay: binding to human lymphocytes
[13] = molecular target: human α4β7 integrin (human) (UniProt P13612); assay: ELISA on coated α4β7+GFP+VLPs
[14] = molecular target: cynomolgus αEβ7 integrin (cynomolgus monkey); assay: FACS, 1 µg/ml, BaF3-cαEβ7 cells
[15] = molecular target: human α4β7 integrin (human) (UniProt P13612); assay: FACS, 1 µg/ml, BaF3-hα4β7 cells
[16] = molecular target: human αEβ7 integrin (human) (UniProt P38570); assay: FACS, 1 µg/ml, BaF3-hαEβ7 cells
[17] = molecular target: cynomolgus αEβ7 integrin (cynomolgus monkey); assay: FACS, 1 µg/ml, BaF3-cαEβ7 cells; remark: listed apart in the source
[18] = molecular target: human α4β7 integrin (human) (UniProt P13612); assay: FACS, 1 µg/ml, BaF3-hα4β7 cells; remark: listed apart in the source
[19] = molecular target: human αEβ7 integrin (human) (UniProt P38570); assay: FACS, 1 µg/ml, BaF3-hαEβ7 cells; remark: listed apart in the source
[20] = molecular target: cynomolgus α4β7 integrin (cynomolgus monkey); assay: FACS, 1 µg/ml, CHOK1-cα4β7 cells
[21] = molecular target: human α4β1 integrin (human) (UniProt P05556); assay: FACS, 1 µg/ml, CHOK1-hα4β1 cells
[22] = molecular target: mouse α4β7 integrin (mouse) (UniProt Q00651); assay: FACS, 1 µg/ml, CHOK1-mα4β7 cells
Sequence of mouse α4β7 integrin (mouse) (Q00651 41-1039, chain 1 of 2): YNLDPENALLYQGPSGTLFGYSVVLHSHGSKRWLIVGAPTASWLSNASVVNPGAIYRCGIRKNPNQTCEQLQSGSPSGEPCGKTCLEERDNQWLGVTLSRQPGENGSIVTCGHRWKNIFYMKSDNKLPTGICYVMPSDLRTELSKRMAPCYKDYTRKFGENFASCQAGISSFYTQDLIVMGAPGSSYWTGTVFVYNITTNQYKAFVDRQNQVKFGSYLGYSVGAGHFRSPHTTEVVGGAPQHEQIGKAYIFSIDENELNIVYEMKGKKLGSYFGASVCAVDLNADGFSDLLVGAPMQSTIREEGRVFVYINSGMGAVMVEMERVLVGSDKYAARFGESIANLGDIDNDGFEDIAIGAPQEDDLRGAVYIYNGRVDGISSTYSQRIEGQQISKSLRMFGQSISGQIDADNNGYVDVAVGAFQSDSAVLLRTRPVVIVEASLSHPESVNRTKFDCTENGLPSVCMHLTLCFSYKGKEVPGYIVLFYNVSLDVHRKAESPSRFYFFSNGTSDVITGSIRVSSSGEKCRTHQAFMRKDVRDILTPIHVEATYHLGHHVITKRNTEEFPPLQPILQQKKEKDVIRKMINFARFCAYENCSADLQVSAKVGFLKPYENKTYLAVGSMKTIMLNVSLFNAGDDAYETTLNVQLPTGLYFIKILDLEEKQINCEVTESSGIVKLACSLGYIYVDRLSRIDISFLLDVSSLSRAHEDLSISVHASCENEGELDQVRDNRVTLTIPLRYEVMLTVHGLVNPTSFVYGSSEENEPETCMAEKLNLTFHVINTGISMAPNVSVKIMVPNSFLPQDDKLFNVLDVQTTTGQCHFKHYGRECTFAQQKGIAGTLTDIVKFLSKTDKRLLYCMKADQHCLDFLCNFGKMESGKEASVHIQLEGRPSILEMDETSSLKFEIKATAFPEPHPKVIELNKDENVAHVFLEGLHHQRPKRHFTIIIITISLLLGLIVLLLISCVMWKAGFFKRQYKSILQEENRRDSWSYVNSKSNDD
Sequence of mouse α4β7 integrin (mouse) (P26011 20-806, chain 2 of 2, further chain): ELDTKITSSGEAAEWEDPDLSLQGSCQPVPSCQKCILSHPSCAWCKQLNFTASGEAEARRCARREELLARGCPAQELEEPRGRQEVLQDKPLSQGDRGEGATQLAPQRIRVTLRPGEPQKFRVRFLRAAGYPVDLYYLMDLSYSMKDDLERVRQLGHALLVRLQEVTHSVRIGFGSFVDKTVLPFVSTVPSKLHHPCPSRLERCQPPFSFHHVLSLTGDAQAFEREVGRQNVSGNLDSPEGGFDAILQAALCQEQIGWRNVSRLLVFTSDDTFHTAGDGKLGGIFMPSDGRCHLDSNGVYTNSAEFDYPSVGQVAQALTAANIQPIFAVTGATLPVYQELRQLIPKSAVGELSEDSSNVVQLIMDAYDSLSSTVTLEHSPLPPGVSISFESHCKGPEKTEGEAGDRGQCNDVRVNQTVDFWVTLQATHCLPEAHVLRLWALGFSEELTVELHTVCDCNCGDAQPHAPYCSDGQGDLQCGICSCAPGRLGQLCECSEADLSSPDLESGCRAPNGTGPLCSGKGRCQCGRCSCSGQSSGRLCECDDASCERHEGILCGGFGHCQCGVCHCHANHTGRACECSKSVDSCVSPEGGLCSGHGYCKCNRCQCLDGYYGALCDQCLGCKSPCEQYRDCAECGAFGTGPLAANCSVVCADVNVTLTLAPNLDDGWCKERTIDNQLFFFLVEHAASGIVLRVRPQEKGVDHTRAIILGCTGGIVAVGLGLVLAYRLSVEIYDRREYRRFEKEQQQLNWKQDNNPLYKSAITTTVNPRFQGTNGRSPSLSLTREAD

[23] = molecular target: cynomolgus α4β7 integrin (cynomolgus monkey); assay: FACS, 1 µg/ml, CHOK1-cα4β7 cells; remark: listed apart in the source
[24] = molecular target: human α4β1 integrin (human) (UniProt P05556); assay: FACS, 1 µg/ml, CHOK1-hα4β1 cells; remark: listed apart in the source
[25] = molecular target: human α4β7 integrin (human) (UniProt P13612); assay: FACS, primary human CD4+ memory T cells
[26] = molecular target: human α4β7 integrin (human) (UniProt P13612); assay: blockade of HuT78 cell adhesion to MAdCAM-1
[27] = molecular target: human α4β7 integrin (human) (UniProt P13612); assay: blockade of HuT78 cell adhesion to MAdCAM-1; remark: listed apart in the source
[28] = molecular target: cynomolgus α4β7 integrin (cynomolgus monkey); assay: blockade of CHOK1/cα4β7 adhesion to MAdCAM-1
[29] = molecular target: cynomolgus α4β7 integrin (cynomolgus monkey); assay: blockade of CHOK1-cα4β7 cell adhesion to MAdCAM-1
[30] = molecular target: cynomolgus α4β7 integrin (cynomolgus monkey); assay: blockade of CHOK1-cα4β7 cell adhesion to MAdCAM-1; remark: listed apart in the source
[31] = molecular target: human α4β7 integrin (human) (UniProt P13612); assay: blockade of MAdCAM-1 mediated HuT78 cell adhesion
[32] = molecular target: human α4β7 integrin (human) (UniProt P13612); assay: virion capture, Protein G plate, HIV BCF06, p24 gag
[33] = molecular target: human α4β7 integrin (human) (UniProt P13612); assay: virion capture, Protein G plate, HIV CMU08, p24 gag
[34] = molecular target: human α4β7 integrin (human) (UniProt P13612); assay: virion capture, Protein G plate, HIV NL4-3, p24 gag
[35] = molecular target: human α4β7 integrin (human) (UniProt P13612); assay: virion capture, Protein G plate, HIV RU570, p24 gag
[36] = molecular target: human α4β7 integrin (human) (UniProt P13612); assay: virion capture, Protein G plate, HIV YBF30, p24 gag
[37] = molecular target: human α4β7 integrin (human) (UniProt P13612); assay: HuT78 cells, FACS-based blockade of MAdCAM-1 binding
[38] = molecular target: human α4β7 integrin (human) (UniProt P13612); assay: competitive FACS, 50x excess of non-labelled competitor Ab-m1
[39] = molecular target: human α4β7 integrin (human) (UniProt P13612); assay: competitive FACS, 50x excess of non-labelled competitor Ab-Abri
[40] = molecular target: human α4β7 integrin (human) (UniProt P13612); assay: competitive FACS, 50x excess of non-labelled competitor Ab-Etro
[41] = molecular target: human α4β7 integrin (human) (UniProt P13612); assay: competitive FACS, 50x excess of non-labelled competitor Ab-Vedo
[42] = molecular target: human α4β7 integrin (human) (UniProt P13612); assay: blockade of RPMI 8866 cell binding to immobilised gp120-V2 WT peptide
[43] = molecular target: human α4β7 integrin (human) (UniProt P13612); assay: human lymphocytes, printed as plate-based cell adhesion blockade to MAdCAM-1
[44] = molecular target: human α4β7 integrin (human) (UniProt P13612); assay: row IC50 (pM) HuT78 of the binning table (assay not explained, presumably adhesion to MAdCAM-1)
[45] = molecular target: human α4β7 integrin (human) (UniProt P13612); assay: ELISA on plates coated with α4β7+GFP+VLPs; table drawn under the plot, without unit: unit from the axis '[Ab] (nM)'; the text prints the rounded 0.058 nM
[46] = molecular target: human α4β7 integrin (human) (UniProt P13612); assay: blockade of HuT78 cell adhesion to plate-bound MAdCAM-1, representative experiment; the two IC50 lines under the plot bear no name: the higher one is given to Ab-Vedo, whose curve lies right of Ab-m1's (midpoint near log -1.8 ug/ml)
[47] = molecular target: cynomolgus α4β7 integrin (cynomolgus monkey); assay: blockade of CHOK1-cα4β7 cell adhesion to MAdCAM-1, representative experiment; the two IC50 lines under the plot bear no name: the higher one is given to Ab-Vedo, whose curve lies clearly right of Ab-m1's (midpoint near log -0.9 ug/ml)
[48] = molecular target: human α4β7 integrin (human) (UniProt P13612); assay: cell-based or functional assay

Sequence of Ab-Vedo (antibody) (VH): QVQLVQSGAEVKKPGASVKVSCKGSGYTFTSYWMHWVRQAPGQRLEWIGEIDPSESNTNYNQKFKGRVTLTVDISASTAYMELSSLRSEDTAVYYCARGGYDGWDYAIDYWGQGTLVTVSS
Sequence of Ab-Vedo (antibody) (VL): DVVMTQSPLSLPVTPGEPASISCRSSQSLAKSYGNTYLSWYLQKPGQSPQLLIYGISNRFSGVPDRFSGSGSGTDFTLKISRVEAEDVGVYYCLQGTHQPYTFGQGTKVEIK

Ab-Vedo (antibody) gave an EC50 [1] of 228 pM, an EC50 [2] of 202 pM and an EC50 [3] of 256 pM. It also gave an EC50 [4] of 199 pM, an EC50 [5] of 204 pM and an EC50 [6] of 381 pM. The EC50 [7] was 381 pM, the EC50 [8] was 727 pM and the EC50 [9] was 658 pM. For the same substance, the EC50 [10] was 911 pM, the EC50 [11] was 713 pM and the Max MFI [11] was 848 MFI. For the same substance, the EC50 [12] was 502 pM, the EC50 [13] was 58 pM and the FACS MFI [14] was 57.2 MFI. The FACS MFI [15] was 707 MFI, the FACS MFI [16] was 11.6 MFI and the FACS MFI [17] was 60.9 MFI. The FACS MFI [18] was 153 MFI, the FACS MFI [19] was 19.5 MFI and the FACS MFI [20] was 101 MFI. For the same substance, the FACS MFI [21] was 4.23 MFI, the FACS MFI [22] was 2.91 MFI and the FACS MFI [23] was 46.5 MFI. It also gave an FACS MFI [24] of 2.87 MFI, an EC50 [25] of 43.2 pM and an IC50 [26] of 94.9 pM. For the same substance, the Max inhibition (%) [26] was 86.5%, the IC50 [27] was 57.4 pM and the Max inhibition (%) [27] was 94.7%. For the same substance, the IC50 [28] was 120 pM, the IC50 [29] was 562 pM and the Max inhibition (%) [29] was 76%. For the same substance, the IC50 [30] was 541 pM, the Max inhibition (%) [30] was 94.4% and the IC50 [31] was 31 pM and 60 pM. The EC50 [32] was 0.37 nM and 0.056 µg/mL, the EC50 [33] was 0.5 nM and 0.075 µg/mL and the EC50 [34] was 0.34 nM and 0.05 µg/mL. For the same substance, the EC50 [35] was 0.32 nM and 0.048 µg/mL, the EC50 [36] was 0.48 nM and 0.072 µg/mL and the IC50 [37] was 193 pM. It also gave a percentage of binding inhibition [38] of 76%, a percentage of binding inhibition [39] of 89% and a percentage of binding inhibition [40] of 18%. It also gave a percentage of binding inhibition [41] of 88%, an IC50 [42] of 0.042 µg/mL and an IC50 [43] of 630 pM. For the same substance, the IC50 [44] was 89 pM, the EC50 [45] was 58.1 pM and the IC50 [46] was 98.1 pM. The IC50 [47] was 822 pM.
For “MAdCAM-1 (R&D systems) (from UniProt Q13477 19-317) (ligand)”, the activated (Ki67+CD25+) human primary CD4+ T cells with plate bound anti-CD3 and MAdCAM-1 (22.6% with anti-CD3 alone) [48] was 56.6%.

— patent US20260062488A1
